Legend:
CD40 = CD40 (UniProt P25942); experiment: cell-based or functional assay
CD27 = biological target: T1, CD27 (UniProt P26842 20-260, limits assumed); experiment: cell-based or functional assay
T1 sequence (looked up): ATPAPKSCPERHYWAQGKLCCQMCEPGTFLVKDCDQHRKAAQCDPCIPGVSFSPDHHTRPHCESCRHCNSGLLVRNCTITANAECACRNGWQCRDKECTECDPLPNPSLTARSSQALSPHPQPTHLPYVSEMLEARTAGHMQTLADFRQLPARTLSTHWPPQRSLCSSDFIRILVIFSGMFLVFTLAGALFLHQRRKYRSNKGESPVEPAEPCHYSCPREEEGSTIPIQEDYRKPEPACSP

human CEA = biological target: T2, human CEA (human, UniProt P06731 35-685, limits assumed); experiment: ELISA
T2 sequence (looked up): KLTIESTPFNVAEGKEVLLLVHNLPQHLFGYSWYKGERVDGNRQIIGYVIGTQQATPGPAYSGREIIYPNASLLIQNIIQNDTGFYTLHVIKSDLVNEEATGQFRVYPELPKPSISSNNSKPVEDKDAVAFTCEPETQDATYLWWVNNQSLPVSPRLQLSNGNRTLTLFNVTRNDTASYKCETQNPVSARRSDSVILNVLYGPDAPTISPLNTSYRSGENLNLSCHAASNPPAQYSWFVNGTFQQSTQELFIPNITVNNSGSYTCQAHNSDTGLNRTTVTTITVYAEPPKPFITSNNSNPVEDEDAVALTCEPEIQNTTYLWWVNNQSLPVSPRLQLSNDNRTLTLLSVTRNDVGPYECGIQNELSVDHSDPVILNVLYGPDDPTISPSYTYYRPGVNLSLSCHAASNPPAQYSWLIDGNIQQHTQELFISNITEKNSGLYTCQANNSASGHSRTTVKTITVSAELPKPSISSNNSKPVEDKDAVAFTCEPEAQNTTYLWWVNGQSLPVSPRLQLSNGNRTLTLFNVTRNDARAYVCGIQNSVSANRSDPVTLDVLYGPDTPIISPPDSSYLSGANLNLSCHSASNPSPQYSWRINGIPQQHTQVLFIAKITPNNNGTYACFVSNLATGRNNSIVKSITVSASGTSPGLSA

Sequence of CD40 (P25942 21-277 limits assumed): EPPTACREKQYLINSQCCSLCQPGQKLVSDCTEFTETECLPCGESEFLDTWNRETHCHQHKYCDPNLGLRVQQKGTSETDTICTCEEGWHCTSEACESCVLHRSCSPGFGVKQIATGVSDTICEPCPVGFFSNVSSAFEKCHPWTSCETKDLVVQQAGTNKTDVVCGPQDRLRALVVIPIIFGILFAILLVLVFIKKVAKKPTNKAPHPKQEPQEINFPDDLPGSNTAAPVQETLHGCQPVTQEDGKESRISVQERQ

Trimeric CD40L (ligand)
immature dendritic cell activation assay, activation level (CD86+ / CD83+), 100 ng/ml, 24 h (CD40): 46.1%

B1: aPDL1-scCD27L-SAB (bispecific antibody, human IgG1, kappa)
chain: QSLGWDVAELQLNHTGPQQDPRLYWQGGPALGRSFLHGPELDKGQLRIHRDGIYMVHIQVTLAICSSTTASRHHPTTLAVGICSPASRSISLLRLSFHQGCTIASQRLTPLARGDTLCTNLTGTLLPSRNTDETFFGVQWVRPGSGSGNGSESLGWDVAELQLNHTGPQQDPRLYWQGGPALGRSFLHGPELDKGQLRIHRDGIYMVHIQVTLAICSSTTASRHHPTTLAVGICSPASRSISLLRLSFHQGCTIASQRLTPLARGDTLCTNLTGTLLPSRNTDETFFGVQWVRPGSGSGNGSESLGWDVAELQLNHTGPQQDPRLYWQGGPALGRSFLHGPELDKGQLRIHRDGIYMVHIQVTLAICSSTTASRHHPTTLAVGICSPASRSISLLRLSFHQGCTIASQRLTPLARGDTLCTNLTGTLLPSRNTDETFFGVQWVRPGSGSDKTHTCPPCPAPELLGGPSVFLFPPKPKDTLMISRTPEVTCVVVDVSHEDPEVKFNWYVDGVEVHNAKTKPREEQYSSTYRVVSVLTVLHQDWLNGKEYKCKVSNKALPAPIEKTISKAKGQPREPQVYTLPPCRDELTKNQVSLWCLVKGFYPSDIAVEWESNGQPENNYKTTPPVLDSDGSFFLYSKLTVDKSRWQQGNVFSCSVMHEALHNHYTQKSLSLSPGK
heavy: EVQLLESGGGLVQPGGSLRLSCAASGFTFSSYIMMWVRQAPGKGLEWVSSIYPSGGITFYADTVKGRFTISRDNSKNTLYLQMNSLRAEDTAVYYCARIKLGTVTTVDYWGQGTLVTVSSASTKGPSVFPLAPSSKSTSGGTAALGCLVKDYFPEPVTVSWNSGALTSGVHTFPAVLQSSGLYSLSSVVTVPSSSLGTQTYICNVNHKPSNTKVDKKVEPKSCDKTHTCPPCPAPELLGGPSVFLFPPKPKDTLMISRTPEVTCVVVDVSHEDPEVKFNWYVDGVEVHNAKTKPREEQYSSTYRVVSVLTVLHQDWLNGKEYKCKVSNKALPAPIEKTISKAKGQPREPQVCTLPPSRDELTKNQVSLSCAVKGFYPSDIAVEWESNGQPENNYKTTPPVLDSDGSFFLVSKLTVDKSRWQQGNVFSCSVMHEALHNRFTQKSLSLSPGK
light: QSALTQPASVSGSPGQSITISCTGTSSDVGGYNYVSWYQQHPGKAPKLMIYDVSNRPSGVSNRFSGSKSGNTASLTISGLQAEDEADYYCSSYTSSSTRVFGTGTKVEIKRTVAAPSVFIFPPSDEQLKSGTASVVCLLNNFYPREAKVQWKVDNALQSGNSQESVTEQDSKDSTYSLSSTLTLSKADYEKHKVYACEVTHQGLSSPVTKSFNRGEC
CD27 Luciferase assay with MDA-MB231 cells, activity against that of scCD27L-Fc (CD27): ~3 fold

B2: aCEA-scCD40L (bispecific antibody)
heavy: EVQLLESGGGLVQPGGSLRLSCATSGFTFTDYYMNWVRQAPGKGLEWLGFIGNKANGYTTEYSASVKGRFTISRDKSKSTLYLQMNTLQAEDSAIYYCTRDRGLRFYFDYWGQGTLVTVSSASTKGPSVFPFAPSSKSTSGGTAALGCLVKDYFPEPVTVSWNSGALTSGVHTFPAVLQSSGLYSLSSVVTVPSSSLGTQTYICNVNHKPSNTKVDKKVEPKSCDKTHGSGSSSSSSQIAAHVISEASSKTTSVLQWAEKGYYTMSNNLVTLENGKQLTVKRQGLYYIYAQVTFCSNREASSQAPFIASLSLKSPGRFERILLRAANTHSSAKPCGQQSIHLGGVFELQPGASVFVNVTDPSQVSHGTGFTSFGLLKLGSGSGNGSQIAAHVISEASSKTTSVLQWAEKGYYTMSNNLVTLENGKQLTVKRQGLYYIYAQVTFCSNREASSQAPFIASLSLKSPGRFERILLRAANTHSSAKPCGQQSIHLGGVFELQPGASVFVNVTDPSQVSHGTGFTSFGLLKLGSGSGNGSQIAAHVISEASSKTTSVLQWAEKGYYTMSNNLVTLENGKQLTVKRQGLYYIYAQVTFCSNREASSQAPFIASLSLKSPGRFERILLRAANTHSSAKPCGQQSIHLGGVFELQPGASVFVNVTDPSQVSHGTGFTSFGLLKL
light: QTVLTQSPSSLSVSVGDRVTITCRASSSVTYIHWYQQKPGLAPKSLIYATSNLASGVPSRFSGSGSGTDYTFTISSLQPEDIATYYCQHWSSKPPTFGQGTKVEVKRTVAAPSVFIFPPSDEQLKSGTASVVCLLNNFYPREAKVQWKVDNALQSGNSQESVTEQDSKDSTYSLSSTLTLSKADYEKHKVYACEVTHQGLSSPVTKSFNRGEC
binding result (human CEA): binds

From patent US20230212260A1 (published 2023)
